Data reported in the supplement of paper PMC11246515.
± gives the standard deviation of the averaged measurements.

Assay: total protein half-life in vivo (active degradation + dilution); higher = more stable protein
[1] = E. coli NCM3722 delta-clpP delta-lon delta-hslV, growth: N-lim chemostat, doubling time 6 h
[2] = E. coli NCM3722 delta-clpP, growth: N-lim chemostat, doubling time 6 h
[3] = E. coli NCM3722 delta-hslV, growth: N-lim chemostat, doubling time 6 h
[4] = E. coli NCM3722 delta-lon, growth: N-lim chemostat, doubling time 6 h
[5] = E. coli NCM3722 delta-smpB, growth: N-lim chemostat, doubling time 6 h
[6] = wild type E. coli NCM3722, growth: C-lim chemostat, doubling time 3 h
[7] = wild type E. coli NCM3722, growth: C-lim chemostat, doubling time 12 h
[8] = wild type E. coli NCM3722, growth: N-lim chemostat, doubling time 6 h
[9] = wild type E. coli NCM3722, growth: N-lim chemostat, doubling time 12 h
[10] = wild type E. coli NCM3722, growth: P-lim chemostat, doubling time 6 h
[11] = wild type E. coli NCM3722, growth: P-lim chemostat, doubling time 12 h
[12] = wild type E. coli NCM3722, growth: C-lim chemostat, doubling time 6 h

Row | Sequence | total protein half-life in vivo [1] [h] | total protein half-life in vivo [2] [h] | total protein half-life in vivo [3] [h] | total protein half-life in vivo [4] [h] | total protein half-life in vivo [5] [h] | total protein half-life in vivo [6] [h] | total protein half-life in vivo [7] [h] | total protein half-life in vivo [8] [h] | total protein half-life in vivo [9] [h] | total protein half-life in vivo [10] [h] | total protein half-life in vivo [11] [h] | total protein half-life in vivo [12] [h]
1 | MDLLYRVKTLWAALRGNHYTWPAIDITLPGNRHFHLIGSIHMGSHDMAPLPTRLLKKLKNADALIVEADVSTSDTPFANLPACEALEERISEEQLQNLQHISQEMGISPSLFSTQPLWQIAMVLQATQAQKLGLRAEYGIDYQLLQAAKQQHKPVIELEGAENQIAMLLQLPDKGLALLDDTLTHWHTNARLLQQMMSWWLNAPPQNNDITLPNTFSQSLYDVLMHQRNLAWRDKLRAMPPGRYVVAVGALHLYGEGNLPQMLR | 5.23 | 5.02 | 5.67 | 5.61 | 5.46 ± 0.086 | 2.97 ± 0.043 | 11.5 | 5.74 ± 0.45 | 12.5 | 5.75 ± 0.62 | 10.6 ± 0.083 | –
2 | MNVLRSGIVTMLLLAAFSVQAACTWPAWEQFKKDYISQEGRVIDPSDARKITTSEGQSYGMFSALAANDRAAFDNILDWTQNNLAQGSLKERLPAWLWGKKENSKWEVLDSNSASDGDVWMAWSLLEAGRLWKEQRYTDIGSALLKRIAREEVVTVPGLGSMLLPGKVGFAEDNSWRFNPSYLPPTLAQYFTRFGAPWTTLRETNQRLLLETAPKGFSPDWVRYEKDKGWQLKAEKTLISSYDAIRVYMWVGMMPDSDPQKARMLNRFKPMATFTEKNGYPPEKVDVATGKAQGKGPVGFSAAMLPFLQNRDAQAVQRQRVADNFPGSDAYYNYVLTLFGQGWDQHRFRFSTKGELLPDWGQECANSH | 5.88 ± 0.14 | 6.89 ± 0.16 | 6.78 ± 0.68 | 6.5 ± 0.64 | 5.684 ± 0.013 | 3.19 ± 0.12 | – | 6.48 ± 1.2 | 14 ± 0.56 | 5.86 ± 0.12 | 12.7 ± 0.61 | 6.41 ± 0.42
3 | MKNSKAILQVPGTMKIISAEIPVPKEDEVLIKVEYVGICGSDVHGFESGPFIPPKDPNQEIGLGHECAGTVVAVGSRVRKFKPGDRVNIEPGVPCGHCRYCLEGKYNICPDVDFMATQPNYRGALTHYLCHPESFTYKLPDNMDTMEGALVEPAAVGMHAAMLADVKPGKKIIILGAGCIGLMTLQACKCLGATEIAVVDVLEKRLAMAEQLGATVVINGAKEDTIARCQQFTEDMGADIVFETAGSAVTVKQAPYLVMRGGKIMIVGTVPGDSAINFLKINREVTIQTVFRYANRYPVTIEAISSGRFDVKSMVTHIYDYRDVQQAFEESVNNKRDIIKGVIKISD | 4.54 | 4.02 | 2.93 | 3.28 | 3.59 ± 0.58 | 2.63 ± 0.11 | 8.14 ± 1.7 | 3.39 ± 0.43 | 5.18 ± 0.57 | 4.95 ± 0.44 | 9.79 ± 0.17 | 4.65 ± 0.57
4 | MFKKSVLFATLLSGVMAFSTNADDKIILKHISVSSVSASPTVLEDTIADIARKYNASSWKVTSMRIDNNSTATAVLYK | – | – | 5.17 ± 1.6 | – | 6.02 ± 0.31 | – | 6.51 ± 5.1 | 3.93 | 9.35 ± 3.8 | 5.33 | 11.5 | 3.54 ± 0.083
5 | MLKIIRAGMYTTVQDGGRHGFRQSGISHCGALDMPALRIANLLVGNDANAPALEITLGQLTVEFETDGWFALTGAGCEARLDDNAVWTGWRLPMKAGQRLTLKRPQHGMRSYLAVAGGIDVPPVMGSCSTDLKVGIGGLEGRLLKDGDRLPIGKSKRDSMEAQGVKQLLWGNRIRALPGPEYHEFDRASQDAFWRSPWQLSSQSNRMGYRLQGQILKRTTDRELLSHGLLPGVVQVPHNGQPIVLMNDAQTTGGYPRIACIIEADMYHLAQIPLGQPIHFVQCSLEEALKARQDQQRYFEQLAWRLHNEN | 5.37 ± 0.055 | 5.3 ± 0.29 | 5.076 ± 0.012 | 5.07 ± 0.35 | 4.88 ± 0.36 | 3.12 ± 0.1 | 10.1 ± 0.82 | 5.25 ± 0.34 | 8.94 ± 0.26 | 5.79 ± 0.12 | 11.26 ± 0.079 | 5.73 ± 0.14
6 | MMKTMRIAAIPGDGIGKEVLPEGIRVLQAAAERWGFALSFEQMEWASCEYYSHHGKMMPDDWHEQLSRFDAIYFGAVGWPDTVPDHISLWGSLLKFRREFDQYVNLRPVRLFPGVPCPLAGKQPGDIDFYVVRENTEGEYSSLGGRVNEGTEHEVVIQESVFTRRGVDRILRYAFELAQSRPRKTLTSATKSNGLAISMPYWDERVEAMAENYPEIRWDKQHIDILCARFVMQPERFDVVVASNLFGDILSDLGPACTGTIGIAPSANLNPERTFPSLFEPVHGSAPDIYGKNIANPIATIWAGAMMLDFLGNGDERFQQAHNGILAAIEEVIAHGPKTPDMKGNATTPQVADAICKIILR | 4.1 ± 1.1 | 2.64 ± 0.46 | 2.66 ± 0.067 | 4.83 ± 2.4 | 2.68 ± 0.02 | 2.6 ± 0.4 | 7.5 ± 1.2 | 2.6337 ± 0.002 | 3.89 ± 0.11 | 4.47 ± 0.67 | 11.1 ± 0.13 | 4.42 ± 0.51
7 | MKTSVRIGAFEIDDGELHGESPGDRTLTIPCKSDPDLCMQLDAWDAETSIPALLNGEHSVLYRTRYDQQSDAWIMRLA | 2.16 ± 0.13 | 1.58 | 0.651 | 1.83 ± 1.1 | 0.479 ± 0.045 | 1.04 ± 0.18 | 2.06 | 0.85 | 0.89 | 0.882 ± 0.16 | 1.16 | 1.846 ± 0.018
